Laboratory results as given in the RNAGym collection of RNA variant scans (doi:10.1073/pnas.2313332121).

B1: TPR t1 (parent)
chain: GACCAAUCUGCCCUCAGAGCUCGAGAACAUCUUCGGAUGCAGAGGAGGCAGGCUUCGGUGGCGCGAUAGCGCCAACGUCCUCAACCUCCAAUGCAUCCCACCACAUGAUGAUGCCUGAAGAGCCUUGGUUUUUUG

Variants of: B1
Assay: polymerase ribozyme fitness, log enrichment relative to wild type (log ratio); higher = more active; in vitro selection for triplet polymerase activity
Outline: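 Streptavidin-bead capture of gel-excised extended constructs, followed by RT-PCR, closed a single triplicate in vitro selection round. That round began by annealing PCR-built, transcribed mutant libraries of each subunit of a heterodimeric triplet polymerase ribozyme with a biotinylated primer, the partner subunit and triplets, then incubating them frozen at −7 °C. After Illumina sequencing of inputs and outputs, genotypes needed ≥10 input reads and ≥1 read per output. Fitness is the base-2 logarithm of genotype enrichment over wild-type enrichment, using inverse-variance-weighted replicate averages.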

| Variant | polymerase ribozyme fitness (log ratio) |
| --- | --- |
| G10C C15U | -0.996 |
| C124U U125A | 0.926 |
| A46U G69U | -0.372 |
| U54G C62G U81A C98U | -4.8 |
| U21C C56U C62A G63A A90C C101A U112C | -6.74 |
| C11A G58C C72U G122A U125A | -2.52 |
| A6U G117A | -0.258 |
| A18G C20A C79U G117C | -3.24 |
| U32C A50G C79U C88U C114A G122A | -2.69 |
| A37U G69C | -1.75 |
| C72G U78C U109A | -6.55 |
| G10A C49A G93U U112G | -1.97 |
| A66U U81G U116G C124A | -5.38 |
| C11U U92A | -2.13 |
| C13U A46U | -0.902 |
| C11A G48A C62U G128C | -3 |
| C72U U92A A95U | -4.07 |
| C12G C40U A43U A83U A105C C124G | -5.47 |
| A18U A41C C88U U92C C104U A111C U125G U132C | -4.68 |
| C123G U126G | -0.0102 |
| U30C C40U U55G | -4.05 |
| A2C C13U G110A | -2.59 |
| G42C G120A | -1.29 |
| A26G G61A C82A U112A U131C | -0.172 |

| Variant | polymerase ribozyme fitness (log ratio) |
| --- | --- |
| G10U U30C A37G C56U C73U | -4.17 |
| C86U A90U | -1.08 |
| U9A C89G A90U | -0.63 |
| C40G C72G U92A G113U | -4.69 |
| G17A G48A C102A A119U C123A | -6.09 |
| C13G G48A C73A | -1.93 |
| C73U C88U | -0.361 |
| C12U G47A U55A G61U C86U | -0.0107 |
| A74C C101U U132C | -0.834 |
| U55A C85A U112G | -2.37 |
| A46U G52U C123A | -3.01 |
| C53G U106A | -0.474 |
| C12U C15U G17A C64U A83C C85A G117U | -2.73 |
| U112A G122C | 0.265 |
| U55A C88U | 0.678 |
| U14C A43G | -3.2 |
| C62U C98G G117C G128A U133C | -5.87 |
| C12G A24U C76A C82A G120C | -6.17 |
| A5U C53A C72U C104U G113C | -2.38 |
| G77U C123G | 1.23 |
| G58C A84U A100C | -1.55 |
| G110A G120A | -1.23 |
| A29U A83G C86U | -2.72 |
| U7A C70A G113C | -4.53 |

| Variant | polymerase ribozyme fitness (log ratio) |
| --- | --- |
| C8A C20A U126A | -3.84 |
| G47A C49A U132A | -1.53 |
| C8G C73U A91G C101G | -2.3 |
| G48C G71A A108G U112C G117U | -6.18 |
| A46U G117A | -2.21 |
| U7A C85U U125G | -1.31 |
| C94A A111U | -0.728 |
| G10U G47U A74G G113U C123G U126A | -3.52 |
| C4A A18G C40A C114A A119G | -3.79 |
| C31G C85U C123U | -5.56 |
| C28A G60A G110U G122A | -0.649 |
| C22A A26U | -4.2 |
| G35A A103G | -6.59 |
| C72G U112A U129A | 0.0162 |
| C11U A41U G69U A74G G117A U125A U130A U131A | -6.86 |
| A37U C70G C97U G117U | -5.65 |
| U78G G113U | -3.89 |
| C53U G69A | -2.64 |
| G52A G71C | -3.42 |
| C13A A119U | 0.145 |
| U54A C88G | -1.9 |
| G47C G117A | -2.73 |
| C102U U130C | -1.87 |
| A37C G61U U109A | -5.9 |

| Variant | polymerase ribozyme fitness (log ratio) |
| --- | --- |
| C11U C72A | 0.246 |
| G25A C73A | -6.13 |
| C28G C31U G58A G63A G117C | -6.83 |
| U38G A43G | -2.91 |
| C70G C124U G128C | -3.97 |
| A46U U55A G69A U125A | -4.29 |
| C28U C72A | -2.49 |
| G117U G135U | -1.25 |
| C15U A16U C76A C115A C123A U130C | -5.56 |
| G10U C22U A46G U54G C56G G61A A74U U92A C114A U116A | -6.68 |
| C73G A121C | 1.42 |
| A91U C98U | -3.3 |
| A6G C97U | -0.751 |
| G10U G35A G117C | -6.56 |
| G42U C56U C86U | -1.14 |
| C12A G35U C40U G45A C53G G63C G117C G127U | -6.85 |
| A46U C70G C85U C104G | -7.09 |
| C89A G93A U106A | -3.07 |
| C34G G61U C64U C99A G120A A121G | -5.39 |
| C8G C22U A43G C88U C97A C99U C101U C102G G110C | -6.9 |
| G23C G60A G77C C98G A119U | -7.44 |
| C64U C124G | 1.78 |
| A5C C104U | -1.05 |
| C40A C49U U59A G60A G117C | -7.16 |

| Variant | polymerase ribozyme fitness (log ratio) |
| --- | --- |
| C13U C40A G61A | -0.491 |
| C12A A83U | -0.825 |
| C49A C53A U116C | -1.16 |
| C8A C62U A74C C89A C104A U112C | -3.01 |
| G42A G48C C62A A119U C124A | -3.3 |
| G57A A75U U96C U131C | -1.53 |
| C73A C123G | 1.74 |
| U38A G48C G63C C85U G110A | -5.19 |
| C34A C72U A100U | -4.44 |
| G71C G113U | -2.72 |
| U87A U112A | 1.76 |
| C53A C76A C88A U92A | -5.92 |
| C20A G45U | -4.09 |
| C12G G52A C88U G120U | 1.84 |
| U21C G57A C72U G77C U96A A121U U125A | -3.06 |
| C20U C22A C76U C85G C123U | -5.95 |
| A41G C49G G58U C79A | -6.14 |
| G69A G120A | -1.48 |
| C22G C76U G77C C124U U131G | -3.47 |
| A84U G127A | -0.952 |
| C13G C53G G63A | -2.67 |
| C3A G36A G44C C72A U130A | -4.85 |
| C15A C20A G107A A121G | -5.21 |
| G19A A43U | -2.7 |

| Variant | polymerase ribozyme fitness (log ratio) |
| --- | --- |
| U9A A50G C88G A108U | -4.75 |
| A27U G47U C56U | -4.13 |
| C73A C124G | 0.687 |
| G42A C53U G63U | -3.99 |
| C86G A100U | -0.874 |
| A18U G58A U112A G122U | -2.54 |
| A26U C53U C56G A100C | -5.42 |
| C11U U14A A84G | -4.24 |
| G51U C62U C89U | -5 |
| G17U A68G C73G U112C | -5.21 |
| C15A U32C G71C | -2.71 |
| C20U C56A C73U U129G U130A | -3 |
| A26U A83C | -3.24 |
| C56U G61A | -4.41 |
| C13A C15U G47C C114A U130C | -6.45 |
| C3A G52U | -1.75 |
| A29G U59G | -1.48 |
| C12A G39U A50U U133A | -1.46 |
| A46G C124U | 0.675 |
| G19C A41U G71A C88G C89U C104A C124U | -5.88 |
| A43U U129G | -2.71 |
| C89A C94A C115U U130A | -3.36 |
| C82G C97A U112C C115G U133G | -6.38 |
| C20G A50C C80U G93A G120C U125G | -6.66 |

| Variant | polymerase ribozyme fitness (log ratio) |
| --- | --- |
| C3U U7G A111U | -1.66 |
| A6G G39A | 0.16 |
| C56G A74U | -0.327 |
| C15U G48A | -1.7 |
| A74C U106A C123U | 1.18 |
| C82U G117U | -2.7 |
| A29C C62A C124G U129C | -3.09 |
| A43G C101U | -1.47 |
| U9A U32A C62U C114A | -4.44 |
| A43C A46C C62U U87A C101U | -2.85 |
| C20G C28U A37U A43U G45A U106A C123G | -7.36 |
| C15U U54C C73U G113A C124G | -0.579 |
| G47U C56U A95U | -1.34 |
| G52A U106G A111C | -2.25 |
| C89A G120A G128C U132C | -3.37 |
| C13G C56A | -1.9 |
| G47U A95C G128C | -4.33 |
| A16U G39U | -3.47 |
| C15U A74G C88A A91C | -2.13 |
| A26G C28U A121G | -0.559 |
| G58U G61A | -0.176 |
| G42C G58A G120U | -1.82 |
| A6G G36U C80U C88U G110C C124U | -5.65 |
